Results: PMC10427625, “Structural basis for negative regulation of the Escherichia coli maltose system” (Nature Communications, 2023)

Legend:
Assay in all cases: pull-down; GST-tagged MalY incubated with an excess of WT or mutant MalT on ice for 30 min, Glutathione Sepharose 4B, buffer TKCl with 0.1 mM ADP and 10 μM PLP; elution with 20 mM glutathione, SDS-PAGE, Coomassie
Settings in all cases: both partners purified
[1] = biological target: T1, MalT (wild type), N-terminally His-tagged (Escherichia coli, UniProt P06993 1-901)
T1 construct: Purified with 0.1 mM ADP or 0.4 mM ATP; the elution at 103 kDa fits the whole protein; In PDB 8BOB only residues 1-423 are well defined; also called WT MalT; MalT WT; source: E. coli BL21 (DE3) ΔmalT220, purified (Ni Sepharose, gel filtration)
T1 sequence (looked up): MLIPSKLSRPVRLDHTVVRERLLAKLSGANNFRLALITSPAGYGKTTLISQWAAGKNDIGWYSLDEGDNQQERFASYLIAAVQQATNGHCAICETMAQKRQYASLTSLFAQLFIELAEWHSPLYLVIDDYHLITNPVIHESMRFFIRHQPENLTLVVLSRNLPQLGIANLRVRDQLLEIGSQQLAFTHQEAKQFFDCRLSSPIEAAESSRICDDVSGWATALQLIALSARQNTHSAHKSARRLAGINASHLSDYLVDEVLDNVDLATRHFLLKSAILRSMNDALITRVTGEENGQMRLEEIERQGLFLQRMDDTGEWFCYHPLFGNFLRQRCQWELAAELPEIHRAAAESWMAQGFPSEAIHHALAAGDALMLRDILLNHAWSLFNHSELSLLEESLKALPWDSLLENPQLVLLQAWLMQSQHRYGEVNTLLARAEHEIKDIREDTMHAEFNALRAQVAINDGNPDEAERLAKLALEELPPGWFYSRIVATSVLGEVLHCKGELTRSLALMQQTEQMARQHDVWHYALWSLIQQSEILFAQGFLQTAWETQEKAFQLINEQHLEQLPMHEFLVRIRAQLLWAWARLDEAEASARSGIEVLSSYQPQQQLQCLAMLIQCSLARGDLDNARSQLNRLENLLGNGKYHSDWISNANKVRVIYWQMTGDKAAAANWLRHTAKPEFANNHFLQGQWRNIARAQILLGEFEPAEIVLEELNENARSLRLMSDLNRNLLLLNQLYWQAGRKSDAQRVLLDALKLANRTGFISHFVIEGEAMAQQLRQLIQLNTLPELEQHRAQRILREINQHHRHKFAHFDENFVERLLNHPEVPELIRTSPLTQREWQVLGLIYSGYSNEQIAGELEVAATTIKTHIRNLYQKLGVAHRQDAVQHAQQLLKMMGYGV

[2] = biological target: T2, MalT-E140A, N-terminally His-tagged (Escherichia coli, UniProt P06993 1-901, E140A)
T2 construct: MalT of Escherichia coli, variant of plasmid pOM206 made by site-directed mutagenesis; source: E. coli BL21 (DE3) ΔmalT220, purified (Ni Sepharose, gel filtration)
T2 sequence (looked up): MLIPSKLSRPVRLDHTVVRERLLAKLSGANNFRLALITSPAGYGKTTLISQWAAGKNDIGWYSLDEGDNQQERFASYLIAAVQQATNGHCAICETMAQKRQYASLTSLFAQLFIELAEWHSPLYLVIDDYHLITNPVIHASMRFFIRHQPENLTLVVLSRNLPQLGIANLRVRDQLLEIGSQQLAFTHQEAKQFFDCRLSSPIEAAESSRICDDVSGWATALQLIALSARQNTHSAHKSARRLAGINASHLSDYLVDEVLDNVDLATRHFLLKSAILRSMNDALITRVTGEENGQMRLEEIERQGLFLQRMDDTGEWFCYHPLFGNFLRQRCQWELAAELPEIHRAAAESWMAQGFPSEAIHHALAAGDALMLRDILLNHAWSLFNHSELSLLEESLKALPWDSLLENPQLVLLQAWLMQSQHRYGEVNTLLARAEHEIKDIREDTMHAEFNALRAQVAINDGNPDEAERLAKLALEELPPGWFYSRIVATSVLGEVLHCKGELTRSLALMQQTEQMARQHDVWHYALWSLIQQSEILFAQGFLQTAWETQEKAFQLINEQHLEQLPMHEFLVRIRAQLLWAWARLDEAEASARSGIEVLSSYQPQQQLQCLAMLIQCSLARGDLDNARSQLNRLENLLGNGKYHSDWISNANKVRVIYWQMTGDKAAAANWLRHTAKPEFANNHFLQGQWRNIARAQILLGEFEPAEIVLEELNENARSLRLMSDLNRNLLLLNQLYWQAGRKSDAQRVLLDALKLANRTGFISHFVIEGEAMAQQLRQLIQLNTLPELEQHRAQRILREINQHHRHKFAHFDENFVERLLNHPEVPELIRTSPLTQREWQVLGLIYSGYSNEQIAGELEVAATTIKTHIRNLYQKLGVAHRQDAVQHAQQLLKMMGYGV

[3] = biological target: T3, MalT-N169A, N-terminally His-tagged (Escherichia coli, UniProt P06993 1-901, N169A)
T3 construct: MalT of Escherichia coli, variant of plasmid pOM206 made by site-directed mutagenesis; source: E. coli BL21 (DE3) ΔmalT220, purified (Ni Sepharose, gel filtration)
T3 sequence (looked up): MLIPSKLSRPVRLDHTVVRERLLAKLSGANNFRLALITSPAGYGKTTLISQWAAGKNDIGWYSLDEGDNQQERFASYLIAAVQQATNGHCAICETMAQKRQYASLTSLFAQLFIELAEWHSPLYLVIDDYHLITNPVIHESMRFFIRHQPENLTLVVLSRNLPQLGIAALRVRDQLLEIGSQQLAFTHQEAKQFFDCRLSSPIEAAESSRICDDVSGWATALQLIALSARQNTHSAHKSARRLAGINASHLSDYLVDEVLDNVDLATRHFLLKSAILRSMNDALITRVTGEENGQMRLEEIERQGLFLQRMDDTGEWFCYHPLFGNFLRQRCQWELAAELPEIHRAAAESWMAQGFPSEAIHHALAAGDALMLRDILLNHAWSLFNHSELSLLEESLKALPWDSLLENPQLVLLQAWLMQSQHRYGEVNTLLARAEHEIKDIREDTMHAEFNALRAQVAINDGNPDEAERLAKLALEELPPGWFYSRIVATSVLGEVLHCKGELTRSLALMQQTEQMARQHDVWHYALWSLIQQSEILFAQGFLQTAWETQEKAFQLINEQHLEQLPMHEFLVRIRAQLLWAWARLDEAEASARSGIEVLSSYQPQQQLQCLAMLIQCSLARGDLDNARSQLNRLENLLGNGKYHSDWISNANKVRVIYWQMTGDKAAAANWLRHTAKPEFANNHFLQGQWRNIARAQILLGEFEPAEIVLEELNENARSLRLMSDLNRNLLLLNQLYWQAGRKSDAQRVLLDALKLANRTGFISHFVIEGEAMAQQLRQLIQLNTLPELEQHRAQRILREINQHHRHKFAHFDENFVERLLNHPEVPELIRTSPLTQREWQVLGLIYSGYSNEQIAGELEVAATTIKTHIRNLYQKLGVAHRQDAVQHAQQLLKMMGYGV

Measured: binding result

B1: N-terminally GST-tagged MalY (enzyme, Escherichia coli, UniProt P23256 1-390, looked up)
chain: MFDFSKVVDRHGTWCTQWDYVADRFGTADLLPFTISDMDFATAPCIIEALNQRLMHGVFGYSRWKNDEFLAAIAHWFSTQHYTAIDSQTVVYGPSVIYMVSELIRQWSETGEGVVIHTPAYDAFYKAIEGNQRTVMPVALEKQADGWFCDMGKLEAVLAKPECKIMLLCSPQNPTGKVWTCDELEIMADLCERHGVRVISDEIHMDMVWGEQPHIPWSNVARGDWALLTSGSKSFNIPALTGAYGIIENSSSRDAYLSALKGRDGLSSPSVLALTAHIAAYQQGAPWLDALRIYLKDNLTYIADKMNAAFPELNWQIPQSTYLAWLDLRPLNIDDNALQKALIEQEKVAIMPGYTYGEEGRGFVRLNAGCPRSKLEKGVAGLINAIRAVR
notes: MalY of E. coli; full-length malY amplified from E. coli genomic DNA, cloned in pGEX-6P-1; Bait of the pull-down; 10 μM PLP present; not shown: GST, N-terminal, kept
binds: all assays above
